Laboratory results taken from article PMC11098746 (2024).

B1: ADP361 (protein)
chain: MAPPQVLAFGLLLAAATATFAAAQEECVCENYKLAVNCFVNNNRQCQCTSVGAQNTVICSKLAAKCLVMKAEMNGSKLGRRAKPEGALQNNDGLYDPDCDESGLFKAKQCNGTSMCWCVNTAGVRRTDKDTEITCSERVRTYWIIIELKHKAREKPYDSKSLRTALQKEITTRYQLDPKFITSILYENNVITIDLVQNSSQKTQNDVDIADVAYYFEKDVKGESLFHSKKMDLTVNGEQLDLDPGQTLIYYVDEKAPEFSMQGLKAG
modifications: bait human Fc-tagged dimer
B2: ADP103 (protein)
chain: MAAALFVLLGFALLGTHGASGAAGFVQAPLSQQRWVGGSVELHCEAVGSPVPEIQWWFEGQGPNDTCSQLWDGARLDRVHIHATYHQHAASTISIDTLVEEDTGTYECRASNDPDRNHLTRAPRVKWVRAQAVVLVLEPGTVFTTVEDLGSKILLTCSLNDSATEVTGHRWLKGGVVLKEDALPGQKTEFKVDSDDQWGEYSCVFLPEPMGTANIQLHGPPRVKAVKSSEHINEGETAMLVCKSESVPPVTDWAWYKITDSEDKALMNGSESRFFVSSSQGRSELHIENLNMEADPGQYRCNGTSSKGSDQAIITLRVRSHL
modifications: bait human Fc-tagged dimer
B3: ADP144 (protein)
chain: MELRARGWWLLCAAAALVACARGDPASKSRSCGEVRQIYGAKGFSLSDVPQAEISGEHLRICPQGYTCCTSEMEENLANRSHAELETALRDSSRVLQAMLATQLRSFDDHFQHLLNDSERTLQATFPGAFGELYTQNARAFRDLYSELRLYYRGANLHLEETLAEFWARLLERLFKQLHPQLLLPDDYLDCLGKQAEALRPFGEAPRELRLRATRAFVAARSFVQGLGVASDVVRKVAQVPLGPECSRAVMKLVYCAHCLGVPGARPCPDYCRNVLKGCLANQADLDAEWRNLLDSMVLITDKFWGTSGVESVIGSVHTWLAEAINALQDNRDTLTAKVIQGCGNPKVNPQGPGPEEKRRRGKLAPRERPPSGTLEKLVSEAKAQLRDVQDFWISLPGTLCSEKMALSTASDDRCWNGMARGRYLPEVMGDGLANQINNPEVEVDITKPDMTIRQQIMQLKIMTNRLRSAYNGNDVDFQDASDDGSGSGSGDGCLDDLCSRKVSRKSSSSRTPLTHALPGLSEQEGQKTSAAS
modifications: bait human Fc-tagged dimer
B4: ADP339 (protein)
chain: MASPFLVLAIGTCLTNSLVPEKEKDPKYWRDQAQETLKYALELQKLNTNVAKNVIMFLGDGMGVSTVTAARILKGQLHHNPGEETRLEMDKFPFVALSKTYNTNAQVPDSAGTATAYLCGVKANEGTVGVSAATERSRCNTTQGNEVTSILRWAKDAGKSVGIVTTTRVNHATPSAAYAHSADRDWYSDNEMPPEALSQGCKDIAYQLMHNIRDIDVIMGGGRKYMYPKNKTDVEYESDEKARGTRLDGLDLVDTWKSFKPRYKHSHFIWNRTELLTLDPHNVDYLLGLFEPGDMQYELNRNNVTDPSLSEMVVVAIQILRKNPKGFFLLVEGGRIDHGHHEGKAKQALHEAVEMDRAIGQAGSLTSSEDTLTVVTADHSHVFTFGGYTPRGNSIFGLAPMLSDTDKKPFTAILYGNGPGYKVVGGERENVSMVDYAHNNYQAQSAVPLRHETHGGEDVAVFSKGPMAHLLHGVHEQNYVPHVMAYAACIGANLGHCAPASS
modifications: bait human Fc-tagged dimer
B5: ADP141 (protein)
chain: MGRLASRPLLLALLSLALCRGRVVRVPTATLVRVVGTELVIPCNVSDYDGPSEQNFDWSFSSLGSSFVELASTWEVGFPAQLYQERLQRGEILLRRTANDAVELHIKNVQPSDQGHYKCSTPSTDATVQGNYEDTVQVKVLADSLHVGPSARPPPSLSLREGEPFELRCTAASASPLHTHLALLWEVHRGPARRSVLALTHEGRFHPGLGYEQRYHSGDVRLDTVGSDAYRLSVSRALSADQGSYRCIVSEWIAEQGNWQEIQEKAVEVATVVIQPSVLRAAVPKNVSVAEGKELDLTCNITTDRADDVRPEVTWSFSRMPDSTLPGSRVLARLDRDSLVHSSPHVALSHVDARSYHLLVRDVSKENSGYYYCHVSLWAPGHNRSWHKVAEAVSSPAGVGVTWLEPDYQVYLNASKVPGFADDPTELACRVVDTKSGEANVRFTVSWYYRMNRRSDNVVTSELLAVMDGDWTLKYGERSKQRAQDGDFIFSKEHTDTFNFRIQRTTEEDRGNYYCVVSAWTKQRNNSWVKSKDVFSKPVNIFWALEDSVLVVKARQPKPFFAAGNTFEMTCKVSSKNIKSPRYSVLIMAEKPVGDLSSPNETKYIISLDQDSVVKLENWTDASRVDGVVLEKVQEDEFRYRMYQTQVSDAGLYRCMVTAWSPVRGSLWREAATSLSNPIEIDFQTSGPIFNASVHSDTPSVIRGDLIKLFCIITVEGAALDPDDMAFDVSWFAVHSFGLDKAPVLLSSLDRKGIVTTSRRDWKSDLSLERVSVLEFLLQVHGSEDQDFGNYYCSVTPWVKSPTGSWQKEAEIHSKPVFITVKMDVLNAFKYP
modifications: bait human Fc-tagged dimer
B6: ADP373 (protein)
chain: MAKASCLPLGFIVFLPAVLLLVAPPLPAADAAHEFTVYRMQQYDLQGQPYGTRNAVLNTEARTMAAEVLSRRCVLMRLLDFSYEQYQKALRQSAGAVVIILPRAMAAVPQDVVRQFMEIEPEMLAMETAVPVYFAVEDEALLSIYKQTQAASASQGSASAAEVLLRTATANGFQMVTSGVQSKAVSDWLIASVEGRLTGLGGEDLPTIVIVAHYDAFGVAPWLSLGADSNGSGVSVLLELARLFSRLYTYKRTHAAYNLLFFASGGGKFNYQGTKRWLEDNLDHTDSSLLQDNVAFVLCLDTVGRGSSLHLHVSKPPREGTLQHAFLRELETVAAHQFPEVRFSMVHKRINLAEDVLAWEHERFAIRRLPAFTLSHLESHRDGQRSSIMDVRSRVDSKTLTRNTRIIAEALTRVIYNLTEKGTPPDMPVFTEQMQIQQEQLDSVMDWLTNQPRAAQLVDKDSTFLSTLEHHLSRYLKDVKQHHVKADKRDPEFVFYDQLKQVMNAYRVKP
modifications: bait human Fc-tagged dimer
B7: ADP380 (protein)
chain: VLEEVQQVRRSHQDFSRQREELGQGLQGVEQKVQSLQATFGTFESILRSSQHKQDLTEKAVKQGESEVSRISEVLQKLQNEILKDLSDGIHVVKDARERDFTSLENTVEERLTELTKSINDNIAIFTEVQKRSQKEINDMKAKVASLEESEGNKQDLKALKEAVKEIQTSAKSREWDMEALRSTLQTMESDIYTEVRELVSLKQEQQAFKEAADTERLALQALTEKLLRSEESVSRLPEEIRRLEEELRQLKSDSHGPKEDGGFRHSEAFEALQQKSQGLDSRLQHVEDGVLSMQVASARQTESLESLLSKSQEHEQRLAALQGRLEGLGSSEADQDGLASTVRSLGETQLVLYGDVEELKRSVGELPSTVESLQKVQEQVHTLLSQDQAQAARLPPQDFLDRLSSLDNLKASVSQVEADLKMLRTAVDSLVAYSVKIETNENNLESAKGLLDDLRNDLDRLFVKVEKIHEKV
modifications: bait human Fc-tagged dimer

target: Circumsporozoite protein (CSP) (Plasmodium falciparum (isolate 3D7), UniProt Q7K740); assay: AVEXIS screen signal:noise (double-corrected)
Sequence (Q7K740 19-374): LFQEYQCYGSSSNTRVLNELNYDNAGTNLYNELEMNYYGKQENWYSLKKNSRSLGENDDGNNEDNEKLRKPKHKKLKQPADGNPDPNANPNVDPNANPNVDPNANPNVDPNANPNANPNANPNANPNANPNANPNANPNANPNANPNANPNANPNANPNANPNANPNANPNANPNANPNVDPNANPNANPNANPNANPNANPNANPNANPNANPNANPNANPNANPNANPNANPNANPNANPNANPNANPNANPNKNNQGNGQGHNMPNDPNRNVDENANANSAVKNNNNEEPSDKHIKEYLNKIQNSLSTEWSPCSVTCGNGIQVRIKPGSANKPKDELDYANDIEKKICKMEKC

| Binder | binding score |
| --- | --- |
| B1 | 6.45 |
| B2 | 0.981 |
| B3 | 0.883 |
| B4 | 1.02 |
| B5 | 2.49 |
| B6 | 1.26 |
| B7 | 0.68 |
